The source of these data is patent US6903185.

Series [1] deals with NRE peptide (three-finger Zif268 variant) (synthetic) (UniProt P08046). Put plainly: cell_activity. Conditions: 293 cells.
The target of series [2] is Zif268 and NRE peptides co-expressed as separate chains (synthetic) (UniProt P08046+P08046). Put plainly: cell_activity. Conditions: co-expression of unlinked peptides; 293 cells.
For series [3], the target named is 268//NRE (six-finger fusion, longer linker) (synthetic) (UniProt P08046). Put plainly: cell_activity. Conditions: VP16-activated transcription, 293 cells.
For series [4], the target named is 268/NRE (six-finger fusion, shorter linker RQKDGERP) (synthetic) (UniProt P08046). Put plainly: cell_activity. The following applies: 293 cells.
In series [5] the target is 268//NRE (six-finger fusion, Zif268 fingers - longer linker - NRE fingers) (synthetic) (UniProt P08046). Put plainly: EMSA. Conditions: room temp. For orientation: A gel shift assay detects complexes by their altered migration in electrophoresis.
Series [6] concerns the target NRE peptide (three-finger Zif268 variant selected by phage display) (synthetic) (UniProt P08046). The experiment in a line: EMSA.

In series [1], “AAGGGTTCA (double strand) [N site in luciferase reporter promoter]” had an activity (fold repression) of 1.9.
For the sequence “AAGGGTTCAGGCGTGGGCG (double strand) [N/Z site in luciferase reporter promoter]”, the activity (fold repression) in series [1] was found to be 1.8; in series [2], 8.5; in series [3], 72; in series [4] it was 68.
“AAGGGTTCAGTGCGTGGGCG (double strand) [N//Z site in luciferase reporter promoter]”: the activity (fold repression) in series [1] is 2.7; in series [3], 47; in series [4] (linker modelled too short for all six fingers to bind), 22.
Regarding “GTGTGTGTGTGATCTGCGTGGGCGGTAAG (double strand) [Z site]”, the Kd in series [5] (exact Kd not determined, smeared band) was determined as 10 pM.
With “TCTGCAAGGGTTCAGCGTGGGCGGTAAG (double strand) [NZ site]”, the Kd in series [6] (apparent Kd with 0.1 nM Zif268 prebound to neighboring site) was 60 pM; in series [6] (apparent Kd, NRE peptide alone), 180 pM; in series [5] (calculated from koff/kon, direct titration <1.0 pM, pH 7.0, 100 mM NaCl, 5 mM MgCl2, Zn), 0.0021 pM.
Regarding “TCTGCAAGGGTTCAGGCGACACCAACCAA (double strand) [N site]”, the Kd in series [5] was 190 pM.
With “TCTGCAAGGGTTCAGGCGTGGGCGGTAAG (double strand) [N/Z site]”, the Kd in series [6] (room temp) is 180 pM; in series [5] (calculated from koff/kon, direct titration <1.0 pM, p113 states 3.8 fM), 0.0037 pM.
As to “TCTGCAAGGGTTCAGTGCGTGGGCGGTAAG (double strand) [N//Z site]”, the Kd in series [5] (calculated from koff/kon, direct titration <1.0 pM) was 0.003 pM.
